Assay [1] concerns non-phosphorylated peptide. As to the kind of experiment: ELISA, non-phosphorylated peptide. It is filed as binding. The conditions noted are these: plate coated with peptide 2 μg/mL; C5.2 IgG 8 μg/mL–0.05 ng/mL, 1 h room temperature; 405 nm. The procedure:
Immulon 4 HBX (extra high-binding) 96-well microtiter plates (Thermo Scientific) were coated with the same peptide used for crystallization diluted to 2 μg/mL in phosphate-buffered saline (PBS) and left overnight at 4 °C (Table 1). Plates were then washed three times in PBS-T (PBS containing 0.05% Tween-20) and blocked in 5% non-fat milk and 3% bovine serum albumin in PBS for 2 hours at room temperature. Plates were subsequently washed 3 times in PBS-T before C5.2 was serially diluted (8 μg/mL–0.05 ng/mL) in PBS and incubated for 1 hour at room temperature. Then, alkaline phosphatase-conjugated goat anti-mouse IgG (Southern Biotech) was diluted 1:2000 in PBS and incubated for 30 minutes at room temperature. Finally, bound IgG was analyzed by addition of p-nitrophenyl phosphate substrate (Thermo Scientific) and measurement at 405 nm on a VersaMax Microplate Reader.
In order to evaluate the ability of C5.2 to exclusively target the phosphorylated epitope, we performed an enzyme-linked immunosorbent assay (ELISA). The peptides used in the assay are the same peptides used for crystallization and diluted to a concentration of 2 μg/mL (Table 1). Binding curves were generated from ELISA data by maintaining plate-bound peptide concentrations and serially diluting C5.2 IgG (Fig. 1c).

The test system of assay [2] is normal tau in the soluble tau fraction (S1) from healthy control subjects. As to the kind of experiment: Western and dot blot, healthy control brain. It is filed as binding, human. The conditions noted are these: C5.2 1 µg/mL overnight 4 °C, pool of 4 healthy control donors. How it is done: Mice were euthanized by cervical dislocation. Brains were quickly removed, weighed and divided sagittally down the midline to yield two hemispheres. One hemisphere was parted from the cerebellum and hindbrain, the forebrain containing cerebral cortex and hippocampus was snap-frozen on dry ice and stored at −80 °C until use for biochemical analysis. Frontal cortices from 4 AD donors (2 males and 2 females) and 4 non-demented healthy controls (HC, 2 males and 2 females) were obtained from Cambridge Bioscience (Cambridge, UK). The brain tissue samples were fresh-frozen and stored at −80 °C until used for biochemical analysis. All donors were of Caucasian race. Age of AD donors: 76–91 years. Age of the HC donors: 57–80 years. […]
Samples were boiled in 1 × LDS loading buffer and 100 mM DTT. […] Tau and pTau levels were assessed in the samples using 1 μg/mL C5.2 overnight at 4 °C. A secondary fluorophore conjugated IgG antibody was used (IRDye 680 Goat anti-mouse, LICOR biosciences) and the signal was quantified using Odyssey CLx and Image studio software (LI-COR biosciences).
1 μl sample of S1 and P3 isolated from 24 weeks old rTg4510 and non-transgenic littermate (non-tg) mice or from four pooled Alzheimer’s disease (AD) and healthy control (HC) brains was spotted on nitrocellulose membranes. […] Bound antibodies were detected using an enhanced chemiluminescence system (ECL PLUS kit; Perkin Elmer).

Assay [3] addresses FITC-conjugated tau peptide pS396/pS404. As to the kind of experiment: Fluorescence polarization direct binding, pS396/pS404 peptide. The conditions noted are these: restated in Discussion; fluorescence polarization, Fab C5.2. How it is done: FITC-labeled peptides used in fluorescence polarization experiments were synthesized by Biomatik (Cambridge, ON, Canada). Fab C5.2 affinity was determined using a fluorescence polarization-based direct binding assay with fluorescein isothiocyanate (FITC)-conjugated peptides (Table 1). The FITC-peptide concentration was kept constant at 300 nM while Fab C5.2 was serially diluted from 675 nM to 0.08 nM. Data was collected at 25 °C using excitation and emission wavelengths of 485 nm and 535 nm, respectively. Each experiment was done in a single 96-well plate and calculated in triplicate (buffer: 50 mM Tris, 100 mM NaCl, 0.1% pluronic F-127). The experiments were performed with a DTX 880 Multimode Detector (Beckman Coulter, Jersey City, NJ). Fluorescence data was reduced using multimode detection software and KD values were calculated in GraphPad Prism 7.0 using a nonlinear regression model.
To accurately measure the C5.2 binding affinity, we performed fluorescence polarization experiments to determine dissociation constants (KD), using the Fab C5.2 and four differentially phosphorylated FITC-conjugated peptides (Table 1). The peptide concentration was kept constant while that of Fab C5.2 was serially diluted from 675 nM to 0.08 nM (Fig. 1d). […] In comparison with a […] IgG molecule, each Fab fragment contains a single binding site so the KD was calculated using a nonlinear model.
(In fluorescence polarisation assays a small probe gives low polarisation when free and higher when bound to something large.)

We go through one molecule from paper PMC5906480, “Tau Antibody Structure Reveals a Molecular Switch Defining a Pathological Conformation of the Tau Protein” (Scientific Reports, 2018).

“Also recorded” adds a separate entry of the source.

B1: C5.2: novel mouse monoclonal antibody that targets the pS396 tau epitope region (antibody, V domains shown)
VH: QVQLQQSDAELVKPGASVKISCKASGYTFTDRTIHWVKQRPEQGLEWIGYIYPGDDSTKYNDMFKAKATLTADKSSNTAYMQLNSLTSDDSAVYFCARRGTMDYWGQGTSVTVSS
VL: DVQMIQSPSSLSASLGDIVTMTCQASQDTSINLNWFQQKPGKAPKLLIYGASNLEDGVPSRFSGSRYGTDFTLTISSLEDEDMATYFCLQHTYLPFTFGSGTKLEIK
One may read the Kd as the concentration at which binding is half-saturated. High values mean lower affinity, low ones higher affinity. Turning to B1, the “Recognition of peptide (ELISA)” value in assay [1] was “lack of recognition; also recorded: does not bind”. Moreover, the “Detection of normal tau (S1)” value in assay [2] is recorded as “not detected”. In assay [3], this molecule displayed an equilibrium dissociation constant (Kd) of 15.4 nM.
